Experimental data reported in patent US20200289560A1 (RUPRECHT KARLS UNIVERSIT T HEIDELBERG, published 2020).

Target: T1, human pyruvate kinase M2 (PKM2) (human, UniProt P14618 1-531)
T1 construct: also called tetrameric PK M2; human PK M2
Test: ultrafiltration (Amicon 30k) of equimolar 2 µM human PK M2 and 2 µM human HMGB1, Western blot of filtrate and retentate
Method: Ultrafiltration of the PK M2-HMGB1 complex: equimolar amounts of HMGB1 and PKM2 were mixed in a final volume of 300 μl and filtrated (14000 g, 4° C.) to a final volume of 15 μl in an Amicon Ultra 0.5 ml 30k device (Merck-Millipore, Darmstadt, Germany). The retentate was adjusted to the original volume after centrifugation. Then filtrate and retentate were analyzed by Western Blot. For controls HMGB1 and PKM2 were also analyzed alone. Pure HMGB1 (2 μM) suited as a negative control.

T1 sequence (P14618 whole entry): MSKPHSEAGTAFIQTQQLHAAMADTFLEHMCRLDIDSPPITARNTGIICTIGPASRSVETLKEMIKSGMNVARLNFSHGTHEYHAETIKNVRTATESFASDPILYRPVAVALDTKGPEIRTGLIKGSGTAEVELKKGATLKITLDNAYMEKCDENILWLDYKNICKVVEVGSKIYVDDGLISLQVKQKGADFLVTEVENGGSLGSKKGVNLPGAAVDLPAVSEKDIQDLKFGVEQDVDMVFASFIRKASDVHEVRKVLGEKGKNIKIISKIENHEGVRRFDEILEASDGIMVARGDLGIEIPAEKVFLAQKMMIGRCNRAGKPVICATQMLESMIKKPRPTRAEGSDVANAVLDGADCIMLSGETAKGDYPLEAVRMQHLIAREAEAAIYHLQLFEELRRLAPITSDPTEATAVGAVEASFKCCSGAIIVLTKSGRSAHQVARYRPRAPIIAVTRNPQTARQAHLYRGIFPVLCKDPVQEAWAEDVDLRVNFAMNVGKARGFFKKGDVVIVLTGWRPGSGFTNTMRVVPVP

B1: recombinant human HMGB1 protein (High Mobility Group Box 1 polypeptide) (other)
chain: MGKGDPKKPRGKMSSYAFFVQTCREEHKKKHPDASVNFSEFSKKCSERWKTMSAKEKGKFEDMAKADKARYEREMKTYIPPKGETKKKFKDPNAPKRPPSAFFLFCSEYRPKIKGEHPGLSIGDVAKKLGEMWNNTAADDKQPYEKKAAKLKEKYEKDIAAYRAKGKPDAAKKGVVKAEKSKKKKEEEEDEEDEEDEEEEEDEEDEDEEEDDDDE
notes: also called rhHMGB1; 125I-labelled HMGB1
B1: binds.
